In patent US20260242735A1:

Experiments:
human CD33 A219S (human) = human CD33 A219S (human) (UniProt P20138); test: alanine scan, flow cytometry
human CD33 Q251A (human) = human CD33 Q251A (human) (UniProt P20138); test: alanine scan, flow cytometry
human CD33 A108S (human) = human CD33 A108S (human) (UniProt P20138); test: alanine scan, flow cytometry, HEK293-T
human CD33 A168S (human) = human CD33 A168S (human) (UniProt P20138); test: alanine scan, flow cytometry, HEK293-T
human CD33 C163A (human) = human CD33 C163A (human) (UniProt P20138); test: alanine scan, flow cytometry, HEK293-T
human CD33 D79A (human) = human CD33 D79A (human) (UniProt P20138); test: alanine scan, flow cytometry, HEK293-T
human CD33 D79A (human), sequence (P20138 18-364 D79A limits assumed): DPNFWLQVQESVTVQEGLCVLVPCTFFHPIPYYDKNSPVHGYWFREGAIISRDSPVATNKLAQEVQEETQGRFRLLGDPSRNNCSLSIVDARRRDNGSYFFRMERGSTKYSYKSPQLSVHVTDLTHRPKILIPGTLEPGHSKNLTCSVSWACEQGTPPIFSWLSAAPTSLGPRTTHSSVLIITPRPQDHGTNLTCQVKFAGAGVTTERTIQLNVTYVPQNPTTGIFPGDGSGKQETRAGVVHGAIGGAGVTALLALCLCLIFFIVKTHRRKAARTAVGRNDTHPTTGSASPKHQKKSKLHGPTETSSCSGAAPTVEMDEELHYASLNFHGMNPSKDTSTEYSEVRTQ

human CD33 F117A (human) = human CD33 F117A (human) (UniProt P20138); test: alanine scan, flow cytometry, HEK293-T
human CD33 F177A (human) = human CD33 F177A (human) (UniProt P20138); test: alanine scan, flow cytometry, HEK293-T
human CD33 H157A (human) = human CD33 H157A (human) (UniProt P20138); test: alanine scan, flow cytometry, HEK293-T
human CD33 I105A (human) = human CD33 I105A (human) (UniProt P20138); test: alanine scan, flow cytometry, HEK293-T
human CD33 I105A (human), sequence (P20138 18-364 I105A limits assumed): as the sequence (P20138 18-364 D79A limits assumed) above, with A62D, I88A counted along it

human CD33 I147A (human) = human CD33 I147A (human) (UniProt P20138); test: alanine scan, flow cytometry, HEK293-T
human CD33 I147A (human), sequence (P20138 18-364 I147A limits assumed): as the sequence (P20138 18-364 D79A limits assumed) above, with A62D, I130A counted along it

human CD33 I47A (human) = human CD33 I47A (human) (UniProt P20138); test: alanine scan, flow cytometry, HEK293-T
human CD33 I47A (human), sequence (P20138 18-364 I47A limits assumed): as the sequence (P20138 18-364 D79A limits assumed) above, with I30A, A62D counted along it

human CD33 I67A (human) = human CD33 I67A (human) (UniProt P20138); test: alanine scan, flow cytometry, HEK293-T
human CD33 K126A (human) = human CD33 K126A (human) (UniProt P20138); test: alanine scan, flow cytometry, HEK293-T
human CD33 K126A (human), sequence (P20138 18-364 K126A limits assumed): as the sequence (P20138 18-364 D79A limits assumed) above, with A62D, K109A counted along it

human CD33 K159A (human) = human CD33 K159A (human) (UniProt P20138); test: alanine scan, flow cytometry, HEK293-T
human CD33 L103A (human) = human CD33 L103A (human) (UniProt P20138); test: alanine scan, flow cytometry, HEK293-T
human CD33 L103A (human), sequence (P20138 18-364 L103A limits assumed): as the sequence (P20138 18-364 D79A limits assumed) above, with A62D, L86A counted along it

human CD33 L93A (human) = human CD33 L93A (human) (UniProt P20138); test: alanine scan, flow cytometry, HEK293-T
human CD33 M120A (human) = human CD33 M120A (human) (UniProt P20138); test: alanine scan, flow cytometry, HEK293-T
human CD33 N100A (human) = human CD33 N100A (human) (UniProt P20138); test: alanine scan, flow cytometry, HEK293-T
human CD33 N160A (human) = human CD33 N160A (human) (UniProt P20138); test: alanine scan, flow cytometry, HEK293-T
human CD33 N53A (human) = human CD33 N53A (human) (UniProt P20138); test: alanine scan, flow cytometry, HEK293-T
human CD33 N53A (human), sequence (P20138 18-364 N53A limits assumed): as the sequence (P20138 18-364 D79A limits assumed) above, with N36A, A62D counted along it

human CD33 N99A (human) = human CD33 N99A (human) (UniProt P20138); test: alanine scan, flow cytometry, HEK293-T
human CD33 P184A (human) = human CD33 P184A (human) (UniProt P20138); test: alanine scan, flow cytometry, HEK293-T
human CD33 P72A (human) = human CD33 P72A (human) (UniProt P20138); test: alanine scan, flow cytometry, HEK293-T
human CD33 R119A (human) = human CD33 R119A (human) (UniProt P20138); test: alanine scan, flow cytometry, HEK293-T
human CD33 R144A (human) = human CD33 R144A (human) (UniProt P20138); test: alanine scan, flow cytometry, HEK293-T
human CD33 R190A (human) = human CD33 R190A (human) (UniProt P20138); test: alanine scan, flow cytometry, HEK293-T
human CD33 R190A (human), sequence (P20138 18-364 R190A limits assumed): as the sequence (P20138 18-364 D79A limits assumed) above, with A62D, R173A counted along it

human CD33 R89A (human) = human CD33 R89A (human) (UniProt P20138); test: alanine scan, flow cytometry, HEK293-T
human CD33 R91A (human) = human CD33 R91A (human) (UniProt P20138); test: alanine scan, flow cytometry, HEK293-T
human CD33 R91A (human), sequence (P20138 18-364 R91A limits assumed): as the sequence (P20138 18-364 D79A limits assumed) above, with A62D, R74A counted along it

human CD33 R98A (human) = human CD33 R98A (human) (UniProt P20138); test: alanine scan, flow cytometry, HEK293-T
human CD33 S102A (human) = human CD33 S102A (human) (UniProt P20138); test: alanine scan, flow cytometry, HEK293-T
human CD33 S104A (human) = human CD33 S104A (human) (UniProt P20138); test: alanine scan, flow cytometry, HEK293-T
human CD33 S104A (human), sequence (P20138 18-364 S104A limits assumed): as the sequence (P20138 18-364 D79A limits assumed) above, with A62D, S87A counted along it

human CD33 S115A (human) = human CD33 S115A (human) (UniProt P20138); test: alanine scan, flow cytometry, HEK293-T
human CD33 S115A (human), sequence (P20138 18-364 S115A limits assumed): as the sequence (P20138 18-364 D79A limits assumed) above, with A62D, S98A counted along it

human CD33 S124A (human) = human CD33 S124A (human) (UniProt P20138); test: alanine scan, flow cytometry, HEK293-T
human CD33 S124A (human), sequence (P20138 18-364 S124A limits assumed): as the sequence (P20138 18-364 D79A limits assumed) above, with A62D, S107A counted along it

human CD33 S128A (human) = human CD33 S128A (human) (UniProt P20138); test: alanine scan, flow cytometry, HEK293-T
human CD33 S135A (human) = human CD33 S135A (human) (UniProt P20138); test: alanine scan, flow cytometry, HEK293-T
human CD33 S158A (human) = human CD33 S158A (human) (UniProt P20138); test: alanine scan, flow cytometry, HEK293-T
human CD33 S164A (human) = human CD33 S164A (human) (UniProt P20138); test: alanine scan, flow cytometry, HEK293-T
human CD33 S181A (human) = human CD33 S181A (human) (UniProt P20138); test: alanine scan, flow cytometry, HEK293-T
human CD33 S68A (human) = human CD33 S68A (human) (UniProt P20138); test: alanine scan, flow cytometry, HEK293-T
human CD33 T139A (human) = human CD33 T139A (human) (UniProt P20138); test: alanine scan, flow cytometry, HEK293-T
human CD33 T162A (human) = human CD33 T162A (human) (UniProt P20138); test: alanine scan, flow cytometry, HEK293-T
human CD33 T192A (human) = human CD33 T192A (human) (UniProt P20138); test: alanine scan, flow cytometry, HEK293-T
human CD33 T192A (human), sequence (P20138 18-364 T192A limits assumed): as the sequence (P20138 18-364 D79A limits assumed) above, with A62D, T175A counted along it

human CD33 V56A (human) = human CD33 V56A (human) (UniProt P20138); test: alanine scan, flow cytometry, HEK293-T
human CD33 Y127A (human) = human CD33 Y127A (human) (UniProt P20138); test: alanine scan, flow cytometry, HEK293-T

human CD33 A108S (human), sequence (P20138 18-364 A108S limits assumed): as the sequence (P20138 18-364 D79A limits assumed) above, with A62D, A91S counted along it

Refmab #7 (WM53) (antibody)
Mean % WT Binding (human CD33 A219S (human)): 121 % WT binding
Mean % WT Binding (human CD33 Q251A (human)): 108 % WT binding
Mean % WT Binding (human CD33 A108S (human)): 120 % WT binding
Mean % WT Binding (human CD33 A168S (human)): 117 % WT binding
Mean % WT Binding (human CD33 C163A (human)): 102 % WT binding
Mean % WT Binding (human CD33 D79A (human)): 83.5 % WT binding
Mean % WT Binding (human CD33 F117A (human)): 132 % WT binding
Mean % WT Binding (human CD33 F177A (human)): 74.1 % WT binding
Mean % WT Binding (human CD33 H157A (human)): 116 % WT binding
Mean % WT Binding (human CD33 I105A (human)): 56.1 % WT binding
Mean % WT Binding (human CD33 I147A (human)): 92 % WT binding
Mean % WT Binding (human CD33 I47A (human)): 50.2 % WT binding
Mean % WT Binding (human CD33 I67A (human)): 135 % WT binding
Mean % WT Binding (human CD33 K126A (human)): 156 % WT binding
Mean % WT Binding (human CD33 K159A (human)): 110 % WT binding
Mean % WT Binding (human CD33 L103A (human)): 109 % WT binding
Mean % WT Binding (human CD33 L93A (human)): 102 % WT binding
Mean % WT Binding (human CD33 M120A (human)): 92 % WT binding
Mean % WT Binding (human CD33 N100A (human)): 128 % WT binding
Mean % WT Binding (human CD33 N160A (human)): 112 % WT binding
Mean % WT Binding (human CD33 N53A (human)): 140 % WT binding
Mean % WT Binding (human CD33 N99A (human)): 102 % WT binding
Mean % WT Binding (human CD33 P184A (human)): 106 % WT binding
Mean % WT Binding (human CD33 P72A (human)): 114 % WT binding
Mean % WT Binding (human CD33 R119A (human)): 116 % WT binding
Mean % WT Binding (human CD33 R144A (human)): 120 % WT binding
Mean % WT Binding (human CD33 R190A (human)): 123 % WT binding
Mean % WT Binding (human CD33 R89A (human)): 94 % WT binding
Mean % WT Binding (human CD33 R91A (human)): 114 % WT binding
Mean % WT Binding (human CD33 R98A (human)): 138 % WT binding
Mean % WT Binding (human CD33 S102A (human)): 111 % WT binding
Mean % WT Binding (human CD33 S104A (human)): 117 % WT binding
Mean % WT Binding (human CD33 S115A (human)): 95.1 % WT binding
Mean % WT Binding (human CD33 S124A (human)): 81.8 % WT binding
Mean % WT Binding (human CD33 S128A (human)): 179 % WT binding
Mean % WT Binding (human CD33 S135A (human)): 101 % WT binding
Mean % WT Binding (human CD33 S158A (human)): 113 % WT binding
Mean % WT Binding (human CD33 S164A (human)): 123 % WT binding
Mean % WT Binding (human CD33 S181A (human)): 86.7 % WT binding
Mean % WT Binding (human CD33 S68A (human)): 120 % WT binding
Mean % WT Binding (human CD33 T139A (human)): 121 % WT binding
Mean % WT Binding (human CD33 T162A (human)): 103 % WT binding
Mean % WT Binding (human CD33 T192A (human)): 102 % WT binding
Mean % WT Binding (human CD33 V56A (human)): 117 % WT binding
Mean % WT Binding (human CD33 Y127A (human)): 175 % WT binding
